# From article PMC10959724 (2024)
# B1: wildtype TBK1 (TANK-binding kinase 1), mCitrine-Protein A fusion [not stated] / TRAF family member-associated NF-kB activator (TANK), NanoLuc-tagged [not stated] (parent complex)
# chain 1: MQSTSNHLWLLSDILGQGATANVFRGRHKKTGDLFAIKVFNNISFLRPVDVQMREFEVLKKLNHKNIVKLFAIEEETTTRHKVLIMEFCPCGSLYTVLEEPSNAYGLPESEFLIVLRDVVGGMNHLRENGIVHRDIKPGNIMRVIGEDGQSVYKLTDFGAARELEDDEQFVSLYGTEEYLHPDMYERAVLRKDHQKKYGATVDLWSIGVTFYHAATGSLPFRPFEGPRRNKEVMYKIITGKPSGAISGVQKAENGPIDWSGDMPVSCSLSRGLQVLLTPVLANILEADQEKCWGFDQFFAETSDILHRMVIHVFSLQQMTAHKIYIHSYNTATIFHELVYKQTKIISSNQELIYEGRRLVLEPGRLAQHFPKTTEENPIFVVSREPLNTIGLIYEKISLPKVHPRYDLDGDASMAKAITGVVCYACRIASTLLLYQELMRKGIRWLIELIKDDYNETVHKKTEVVITLDFCIRNIEKTVKVYEKLMKINLEAAELGEISDIHTKLLRLSSSQGTIETSLQDIDSRLSPGGSLADAWAHQEGTHPKDRNVEKLQVLLNCMTEIYYQFKKDKAERRLAYNEEQIHKFDKQKLYYHATKAMTHFTDECVKKYEAFLNKSEEWIRKMLHLRKQLLSLTNQCFDIEEEVSKYQEYTNELQETLPQKMFTASSGIKHTMTPIYPSSNTLVEMTLGMKKLKEEMEGVVKELAENNHILERFGSLTMDGGLRNVDCL
# chain 2: MDKNIGEQLNKAYEAFRQACMDRDSAVKELQQKTENYEQRIREQQEQLSLQQTIIDKLKSQLLLVNSTQDNNYGCVPLLEDSETRKNNLTLDQPQDKVISGIAREKLPKVRRQEVSSPRKETSARSLGSPLLHERGNIEKTFWDLKEEFHKICMLAKAQKDHLSKLNIPDTATETQCSVPIQCTDKTDKQEALFKPQAKDDINRGAPSITSVTPRGLCRDEEDTSFESLSKFNVKFPPMDNDSTFLHSTPERPGILSPATSEAVCQEKFNMEFRDNPGNFVKTEETLFEIQGIDPIASAIQNLKTTDKTKPSNLVNTCIRTTLDRAACLPPGDHNALYVNSFPLLDPSDAPFPSLDSPGKAIRGPQQPIWKPFPNQDSDSVVLSGTDSELHIPRVCEFCQAVFPPSITSRGDFLRHLNSHFNGET
# Variants of: B1
# Assay: LuTHy-BRET; live HEK293 cells; parent: 1; read off a plot
row,ratio to parent,Variant
1,~1,chain 1 R47H
2,~0.99,chain 1 E696K

# Variants of: B1
# Assay: LuTHy-BRET donor saturation assay; live HEK293 cells; read at Acceptor:Donor = 4 (highest point of the curve); parent: 0.068; read off a plot
row,response,Variant
1,~0.062,chain 1 E696K
